# Source: doi:10.1101/2023.10.06.561239 (bioRxiv, 2023)
# T1: human DMC1, untagged, purified recombinant (human, UniProt Q14565 1-340)
# T1 sequence (looked up): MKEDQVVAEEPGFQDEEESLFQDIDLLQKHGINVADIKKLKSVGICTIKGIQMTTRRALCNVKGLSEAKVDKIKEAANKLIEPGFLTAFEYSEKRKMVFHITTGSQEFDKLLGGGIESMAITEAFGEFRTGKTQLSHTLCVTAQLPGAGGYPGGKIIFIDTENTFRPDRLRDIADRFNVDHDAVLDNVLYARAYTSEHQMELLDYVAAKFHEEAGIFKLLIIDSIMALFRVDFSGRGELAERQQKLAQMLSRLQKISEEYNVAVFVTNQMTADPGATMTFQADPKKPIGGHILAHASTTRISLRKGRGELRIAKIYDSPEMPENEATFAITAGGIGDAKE
# B1: human his-GST-TEV-BRCA2 F2s3 (aa 2379-2433), wild type (domain or fragment, UniProt P51587 2379-2433, looked up)
# chain: GHPFYQVSATRNEKMRHLITTGRPTKVFVPPFKTKSHFHRVEQCVRNINLEENRQ
# Target: T1, human DMC1, untagged, purified …
# Assay: pull-down
binder,measurement,value
B1,binding result,binds
